Assay results published in patent US20220306762A1 (CRYSTAL BIOSCIENCE, published 2022).
Numbering of substitutions follows the chain as printed.

T1: His-tagged mouse CD38 (ACRO Biosystems CD8-M5223) (mouse, UniProt P56528 45-304)
T1 construct: bought protein; used for ELISA coating and as SPR analyte; also called Murine; not shown: His tag
T1 sequence (looked up): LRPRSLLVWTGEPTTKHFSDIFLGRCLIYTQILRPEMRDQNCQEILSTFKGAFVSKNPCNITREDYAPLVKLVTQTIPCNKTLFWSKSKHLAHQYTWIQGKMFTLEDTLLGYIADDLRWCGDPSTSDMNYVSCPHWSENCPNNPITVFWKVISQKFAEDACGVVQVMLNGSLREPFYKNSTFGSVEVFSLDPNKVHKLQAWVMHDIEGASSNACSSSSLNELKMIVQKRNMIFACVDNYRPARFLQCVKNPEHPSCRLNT

T2: Murine CD38 on transiently transfected Expi293 cells (Origene MC208001) (murine, UniProt P56528 1-304)
T2 construct: whole, on cells
T2 sequence (looked up): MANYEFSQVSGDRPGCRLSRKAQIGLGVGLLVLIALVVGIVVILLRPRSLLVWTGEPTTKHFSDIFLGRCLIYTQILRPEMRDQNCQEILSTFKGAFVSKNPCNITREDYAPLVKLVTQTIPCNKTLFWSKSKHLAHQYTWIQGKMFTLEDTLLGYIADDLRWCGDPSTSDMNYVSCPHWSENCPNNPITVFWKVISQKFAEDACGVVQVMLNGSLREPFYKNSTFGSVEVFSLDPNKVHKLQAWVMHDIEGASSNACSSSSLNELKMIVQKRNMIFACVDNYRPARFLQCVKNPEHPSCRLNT

B1: 40596p1.F6 (scFv, V domains shown)
VH: EVQLLESGGGLVQPGGSLRLSCAASGFDFSKNAMSWVRQAPGKGLEYVAGSGWSGSFIFYADSVKGRFTVSRDNSENTLYLQMSSLRAEDTAVYYCAKNPGFGEMDVWGQGTTVTVSS
VL: EIVLTQSPGSLFLSPGERATLTCRASQTIGSNLAWYQQKFGQAPRLLIYGASTRAADIPDRFSGSGSGTEFTLTISSLQSEDFAVYYCQQYNSWPPLTFGGGTKVEIK
B2: 40596p1.E4 (scFv, V domains shown)
VH: B1 VH with K31G, N32S, S51L, F59Y, F68S, V70I, E76K, M83L, S84N, K98R
VL: B1 VL with F12S, T22S, I29V, F40P, A56T
B3: 40596p1.A5 (scFv, V domains shown)
VH: B1 VH with K31N, S84N
VL: B1 VL with F12S, T22R, T28S, F40P, R45S, S76T
B4: 40596p1.D2 (scFv, V domains shown)
VH: B1 VH with F68S
VL: B1 VL with I2L
B5: 40769p1.2.C9 (scFv, V domains shown)
VH: EVQLLESGGGLVQPGGSLRLSCAASGFTFSSHDMNWVRQAPGKGLEWVSTITTTGGTYYTDSVKGRFTISRDNSKNTIYLQMTSLRAEDTAVYYCTKHYSMDVWGQGTTVTVSS
VL: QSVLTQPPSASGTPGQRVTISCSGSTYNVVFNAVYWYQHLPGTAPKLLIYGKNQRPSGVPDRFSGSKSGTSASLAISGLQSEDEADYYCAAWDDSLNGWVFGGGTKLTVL
B6: 40617p1.2.B4 (scFv, V domains shown)
VH: EVQLLESGGGFVQPGGSLRLSCAASGFTFTNYVMNWVRQAPGKGLEWVSSISISGGRYTWYADSVKGRFTISRDNSRNTLYLQMNSLRAEDTAIYYCAREMNTYSFPMDVWGQGTTVTVSS
VL: EIVLTQSPGTLSLSPGERATLNCRASQNVRSDLAWYQQKPGQAPRLLIYDASNRATGIPDRFSGSGSGTDFSLTISRLEPEDFAVYYCQQYYDWPPYTFGGGTKVEIK
B7: 40769p1.2.B10 (scFv, V domains shown)
VH: EVQLLESGGGLVQPGGSLRLSCPASGFDFSSYWMTWVRQAPGKGLEWVSTITDSGGRAWYADSVRGRFTISRDNSKNTLYLQMNSLRAEDTAVYYCARDTPKTYYYYAMDVWGQGTTVTV
VL: QSALTQPPSASGTPGQRVTISCSGSSSNIQYSYVSWYQQLPGTAPKLLIYNNVQRPSGVPDRFSGSKSGTSASLAISGLQSEDEADYYCATWDESLLGLWVFGGGTKLTVL
B8: 40617p1.2.A1 (scFv, V domains shown)
VH: EVQLLESGGGLVQPGGSLRLSCAASGFTFSSYWMTWVRQAPGKGLEWVSAISSYGGQYTYYADSVKGRFTISRDNSKDTLYLHMDSLRAEDTAVYYCAKDWDDGMDVWGQGTTVTVSS
VL: EIVMTQSPAVLSVSPGERATLSCRASQSVNIKLAWYQQKPGQAPRLLIYGASTRAAGIPDRFSGSGSGTDFTLTISSLQSDDFAVYYCQQYYDLPPYSFGGGTKVEIK
B9: 40617p1.2.H1 (scFv, V domains shown)
VH: B8 VH with S30T, S31N, Q57N, T59M, K77E, D78N, H83Q, D85N
VL: B8 VL with S28T, N30G, I31S, A51V, D81E
B10: 40769p1.1.B12 (scFv, V domains shown)
VH: EVQLLESGGGLIQPGGSLRLSCTASGFDFSSYGMHWVRQAPGKGLEWVGIISDSGGTTYYADSVKGRFTISRDNSKNTMYLQMNSLRAEDTALYYCASYIMDVWGQGITVTVSS
VL: QSVLTQPPSASGTPGQRVTISCSGSSSNVGGNSVYWYQQLPGTAPKLLFYGNHRRPSGVPDRFSGSKSGTSASLAISGLQSEDEADYYCAVWDDSLNAWVFGGGTKLTVL
B11: 40769p1.1.B10 (scFv, V domains shown)
VH: EVQLLESGGGLVQPGGSLRLSCTASGITFSRFNMFWVRQAPGKGLEFVASIRDDGSWTYYADSVKGRFTISRDNSKNTLYLQMNSLRAEDTAVYYCAKDYNSKDFIYHYVMDVWGQGTTVTVSS
VL: QSVLTQPPSASGTPGQRVTISCSGRNSNIGNNVVNWYQQLPGTAPKLLIYRNQERPSGVPDRFSGSKSGTSASLAISGLQSEDEADYYCSTWDDSLNGWVFGGGTKLTVL
B12: 40769p2.2.H8 IgG (antibody, V domains shown)
VH: EVQLLESGGGLVQSGGSLRLSCAASGFNFNSHDMNWVRQAPGKGLEWVSSISADRGRTYYADSVKGRFTIFRDDSKKILYLQMNSLRAEDTAVYYCTKYYNMDVWGQGTTVTVSS
VL: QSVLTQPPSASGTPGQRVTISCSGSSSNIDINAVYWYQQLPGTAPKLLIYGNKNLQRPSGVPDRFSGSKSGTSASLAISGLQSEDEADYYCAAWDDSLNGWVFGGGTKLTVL
notes: IgG
B13: 40769p2.2.A9 IgG (antibody, V domains shown)
VH: B11 VH with R67Q
VL: B11 VL
notes: IgG
B14: 40769p2.2.A5 scFv-Fc (scFv, V domains shown)
VH: B10 VH with S54T, A61G, N77S, M79L, I108T
VL: B10 VL with S26N, G31D, S33A, N52T, H53N, V91A
notes: scFv-Fc
B15: 40769p2.2.E12 scFv-Fc (scFv, V domains shown)
VH: B10 VH with S54T, A61G, N77S, M79L, I108T
VL: B10 VL with S26N, G31D, S33A, L40P, N52T, H53N, V91A
notes: scFv-Fc
B16: 40769p2.2.D3 scFv-Fc (scFv, V domains shown)
VH: B10 VH with M79L
VL: B10 VL with S26N, G31V, F49I, N52S, H53G, G65V, V91A, D94G, S95G
notes: scFv-Fc
B17: 40769p2.2.A9 scFv-Fc (scFv, V domains shown)
VH: B11 VH with R67Q
VL: B11 VL
notes: scFv-Fc

The binders below were run against T3, His-tagged cynomolgus monkey CD38 (ACRO Biosystems, CD8-05223 [sic]) (cynomolgus monkey, UniProt Q5VAN0 43-301) (assay: SPR (second run), His-tagged CD38).
T3 construct: bought protein; used for ELISA coating and as SPR analyte; not shown: His tag

Kd [nM]	Binder
281	B1
147	B2
203	B3
172	B4
200	B5
149	B6
24.3	B7
102	B8
33.8	B9
582	B10
6030	B11

These binders were tested against T1, His-tagged mouse CD38 (ACRO Biosystems …) (assay: SPR (second run), His-tagged CD38).

Kd [nM]	Binder
27.2	B1
930	B2
23.7	B3
45.2	B4
55	B5
3.33	B6
1660	B7
141	B8
73	B9
249	B10
501	B11

These binders were tested against T4, His-tagged human CD38 (ACRO Biosystems CD8-H5224) (human, UniProt P28907 43-300) (assay: SPR (second run), His-tagged CD38).
T4 construct: bought protein; used for ELISA coating and as SPR analyte; not shown: His tag

Kd [nM]	Binder
80.4	B1
26.4	B2
56.9	B3
54.7	B4
96.2	B5
36.1	B6
2.49	B7
75.3	B8
9.71	B9
91	B10
29.6	B11

The binders below were run against T3, His-tagged cynomolgus monkey CD38 (ACRO …) (assay: SPR, IgG).

Kd [nM]	Binder
148	B12
259	B13

The binders below were run against T4, His-tagged human CD38 (ACRO Biosystems …) (assay: SPR, IgG).

Kd [nM]	Binder
65.7	B12
11.3	B13

Each binder was assayed against T3, His-tagged cynomolgus monkey CD38 (ACRO …) (assay: ELISA, 1 ug/ml scFv-Fc, coated His-tagged CD38).

ELISA signal	Binder
1.6	B14
1.59	B15
1.34	B16
1.67	B17

What follows are binders tested against T1, His-tagged mouse CD38 (ACRO Biosystems …) (assay: ELISA, 1 ug/ml scFv-Fc, coated His-tagged CD38).

ELISA signal	Binder
1.27	B14
1.26	B15
0.044	B17

These binders were tested against T4, His-tagged human CD38 (ACRO Biosystems …) (assay: ELISA, 1 ug/ml scFv-Fc, coated His-tagged CD38).

ELISA signal	Binder
1.76	B14
1.67	B15
1.48	B16
1.55	B17

What follows are binders tested against T2, Murine CD38 on transiently transfected … (assay: flow cytometry, 10 ug/ml scFv-Fc, transfected Expi293 cells).

FACS percent gated [%]	Binder
35.5	B14
35.9	B15
13.1	B16
1.57	B17

What follows are binders tested against T5, Human CD38 on transiently transfected Expi293 cells (Origene SC321273) (human, UniProt P28907 1-300) in the same assay as above.
T5 construct: whole, on cells

FACS percent gated [%]	Binder
90.5	B14
91.6	B15
83.5	B16
91.2	B17
